Assay results reported in patent publication US7462599B2, “Use of effectors of glutaminyl and glutamate cyclases” (Probiodrug AG, priority 2003, dated 2008).

Molecular target: QC (Homo sapiens, UniProt Q16769)
Test: LC/MS analysis of QC-catalyzed pyroglutamate formation
Type: biochemical

Sequence of QC (Q16769 29-361): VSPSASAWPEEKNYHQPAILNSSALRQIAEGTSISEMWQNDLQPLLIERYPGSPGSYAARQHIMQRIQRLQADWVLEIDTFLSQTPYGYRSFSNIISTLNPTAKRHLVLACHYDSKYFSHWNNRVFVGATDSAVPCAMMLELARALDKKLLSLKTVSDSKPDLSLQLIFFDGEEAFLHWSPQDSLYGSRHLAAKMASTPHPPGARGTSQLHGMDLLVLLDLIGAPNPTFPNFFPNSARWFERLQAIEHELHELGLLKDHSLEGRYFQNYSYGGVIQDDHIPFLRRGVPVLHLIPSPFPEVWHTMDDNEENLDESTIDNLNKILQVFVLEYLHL

B1: MCP-2 isoforms: Human Monocyte Chemotactic Protein 2 (MCP-2) isoforms, 76 residue chemokine (protein, UniProt P80075 24-99, looked up)
C-C motif chemokine 8: QPDSVSIPITCCFNVINRKIPIQRLESYTRITNIQCPKEAVIFKTKRGKEVCADPKERWVRDSMKHLDQIFQNLKP
formation of N-terminal pyroglutamate catalyzed by QC: is catalyzed by QC
